# Results as given in PMC10373542.
# Biological target: SARS-CoV-2 WA-1 stabilized S trimer, HexaPro (SARS-CoV-2) (UniProt P0DTC2)
# Assay: BLI
substance,measurement,value
CR3022 monoclonal antibody,fold increase of binding when S protein is bound to WRAIR-2063,6 fold
